For one test, the target named is T1, GST-tagged ATGL(300–504) (human, UniProt Q96AD5 300-504).
T1 construct: source: E. coli BL21(DE3), purified (glutathione Sepharose 4B, Sephacryl S-200)
T1 sequence (looked up): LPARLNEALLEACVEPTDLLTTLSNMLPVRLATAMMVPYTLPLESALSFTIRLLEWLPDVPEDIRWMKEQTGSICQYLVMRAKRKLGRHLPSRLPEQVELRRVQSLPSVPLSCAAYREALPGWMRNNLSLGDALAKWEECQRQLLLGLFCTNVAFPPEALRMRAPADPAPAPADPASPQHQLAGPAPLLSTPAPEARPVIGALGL
Kind of test: pull-down; quantitative: 0.1 nmole His-Sec7-GBF1(710–894) immobilised on Ni Sepharose, 1–20 µM GST-tagged ATGL(300–504) added; anti-GST immunoblot, bound versus free, Scatchard analysis; apparent Kd. To be noted: both partners purified. A general note: In western blotting, separated proteins are transferred to a membrane and probed.

Test [1] concerns the target Venus-tagged full-length GBF1 D544A (human) (UniProt Q92538). Kind of test: co-IP; Cos7 cells co-transfected with HA-tagged ATGL constructs and Venus-tagged constructs; IP with anti-GFP, blot with anti-HA; lysis in 50 mM Tris-HCl pH 7.5, 100 mM NaCl, 1 mM EDTA, 0.5% NP40; 4°C.
The target of a further test is Venus-ΔDCB-GBF1 (human). Described as above.
In test [2] the target is Venus-tagged GBF1 HDS1 domain (human). Described as above.
The target in test [3] is Venus-tagged N-GBF1 D544A (human). Described as above.

Sequence of Venus-tagged GBF1 HDS1 domain (human) (Q92538 688-888): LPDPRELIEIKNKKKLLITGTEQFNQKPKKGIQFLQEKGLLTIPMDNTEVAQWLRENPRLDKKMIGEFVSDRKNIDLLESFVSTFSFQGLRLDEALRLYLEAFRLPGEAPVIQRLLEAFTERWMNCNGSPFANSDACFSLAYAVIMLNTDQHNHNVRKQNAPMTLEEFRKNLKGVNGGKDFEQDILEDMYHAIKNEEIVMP
Sequence of Venus-tagged full-length GBF1 D544A (human) (Q92538 other isoform, or with tags, fused parts or gaps, stated change not applied): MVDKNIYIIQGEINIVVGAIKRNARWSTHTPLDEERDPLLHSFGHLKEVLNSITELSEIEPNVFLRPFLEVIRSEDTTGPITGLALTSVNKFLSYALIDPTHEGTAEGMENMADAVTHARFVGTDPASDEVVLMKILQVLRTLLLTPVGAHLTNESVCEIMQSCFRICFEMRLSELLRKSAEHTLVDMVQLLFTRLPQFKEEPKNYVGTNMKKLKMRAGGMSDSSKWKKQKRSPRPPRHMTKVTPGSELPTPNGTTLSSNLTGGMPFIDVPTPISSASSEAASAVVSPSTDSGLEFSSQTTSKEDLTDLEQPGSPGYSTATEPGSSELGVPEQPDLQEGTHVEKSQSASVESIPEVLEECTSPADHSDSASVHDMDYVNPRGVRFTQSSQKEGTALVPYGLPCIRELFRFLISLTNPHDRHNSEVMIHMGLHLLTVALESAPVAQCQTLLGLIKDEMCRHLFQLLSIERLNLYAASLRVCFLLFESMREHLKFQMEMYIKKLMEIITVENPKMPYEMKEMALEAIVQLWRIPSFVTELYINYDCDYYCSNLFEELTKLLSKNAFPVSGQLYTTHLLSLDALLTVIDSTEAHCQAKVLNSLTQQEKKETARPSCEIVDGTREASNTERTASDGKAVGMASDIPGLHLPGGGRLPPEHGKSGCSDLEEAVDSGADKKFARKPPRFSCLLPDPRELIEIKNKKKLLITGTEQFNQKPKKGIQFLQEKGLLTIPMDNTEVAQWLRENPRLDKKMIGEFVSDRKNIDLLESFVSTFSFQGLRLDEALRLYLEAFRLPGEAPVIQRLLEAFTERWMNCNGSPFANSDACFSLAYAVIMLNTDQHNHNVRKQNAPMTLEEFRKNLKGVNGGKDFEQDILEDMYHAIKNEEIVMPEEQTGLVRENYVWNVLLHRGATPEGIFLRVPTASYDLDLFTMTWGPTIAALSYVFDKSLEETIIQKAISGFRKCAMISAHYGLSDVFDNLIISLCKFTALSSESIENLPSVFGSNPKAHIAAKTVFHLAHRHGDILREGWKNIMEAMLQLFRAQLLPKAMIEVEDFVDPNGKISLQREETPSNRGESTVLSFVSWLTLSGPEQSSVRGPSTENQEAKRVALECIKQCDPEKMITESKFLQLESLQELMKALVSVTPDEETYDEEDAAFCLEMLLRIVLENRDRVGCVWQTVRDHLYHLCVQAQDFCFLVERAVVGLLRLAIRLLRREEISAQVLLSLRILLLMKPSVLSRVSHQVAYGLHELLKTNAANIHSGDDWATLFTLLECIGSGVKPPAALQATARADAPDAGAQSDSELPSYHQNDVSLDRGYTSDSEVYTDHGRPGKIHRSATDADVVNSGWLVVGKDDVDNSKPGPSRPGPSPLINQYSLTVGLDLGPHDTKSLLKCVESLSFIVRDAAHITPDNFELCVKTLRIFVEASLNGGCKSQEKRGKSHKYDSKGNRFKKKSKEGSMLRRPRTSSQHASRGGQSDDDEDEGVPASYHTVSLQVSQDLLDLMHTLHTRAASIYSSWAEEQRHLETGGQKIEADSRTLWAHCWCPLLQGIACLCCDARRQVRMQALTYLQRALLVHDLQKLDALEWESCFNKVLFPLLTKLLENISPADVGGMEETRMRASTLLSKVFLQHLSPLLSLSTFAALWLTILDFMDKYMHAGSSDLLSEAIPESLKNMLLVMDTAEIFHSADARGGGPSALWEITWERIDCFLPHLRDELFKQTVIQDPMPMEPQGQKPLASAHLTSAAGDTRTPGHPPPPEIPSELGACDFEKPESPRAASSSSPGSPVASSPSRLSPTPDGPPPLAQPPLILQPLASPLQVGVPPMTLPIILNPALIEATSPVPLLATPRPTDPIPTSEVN
Sequence of Venus-ΔDCB-GBF1 (human) (Q92538 whole entry, stated change not applied, the tested form may be a part): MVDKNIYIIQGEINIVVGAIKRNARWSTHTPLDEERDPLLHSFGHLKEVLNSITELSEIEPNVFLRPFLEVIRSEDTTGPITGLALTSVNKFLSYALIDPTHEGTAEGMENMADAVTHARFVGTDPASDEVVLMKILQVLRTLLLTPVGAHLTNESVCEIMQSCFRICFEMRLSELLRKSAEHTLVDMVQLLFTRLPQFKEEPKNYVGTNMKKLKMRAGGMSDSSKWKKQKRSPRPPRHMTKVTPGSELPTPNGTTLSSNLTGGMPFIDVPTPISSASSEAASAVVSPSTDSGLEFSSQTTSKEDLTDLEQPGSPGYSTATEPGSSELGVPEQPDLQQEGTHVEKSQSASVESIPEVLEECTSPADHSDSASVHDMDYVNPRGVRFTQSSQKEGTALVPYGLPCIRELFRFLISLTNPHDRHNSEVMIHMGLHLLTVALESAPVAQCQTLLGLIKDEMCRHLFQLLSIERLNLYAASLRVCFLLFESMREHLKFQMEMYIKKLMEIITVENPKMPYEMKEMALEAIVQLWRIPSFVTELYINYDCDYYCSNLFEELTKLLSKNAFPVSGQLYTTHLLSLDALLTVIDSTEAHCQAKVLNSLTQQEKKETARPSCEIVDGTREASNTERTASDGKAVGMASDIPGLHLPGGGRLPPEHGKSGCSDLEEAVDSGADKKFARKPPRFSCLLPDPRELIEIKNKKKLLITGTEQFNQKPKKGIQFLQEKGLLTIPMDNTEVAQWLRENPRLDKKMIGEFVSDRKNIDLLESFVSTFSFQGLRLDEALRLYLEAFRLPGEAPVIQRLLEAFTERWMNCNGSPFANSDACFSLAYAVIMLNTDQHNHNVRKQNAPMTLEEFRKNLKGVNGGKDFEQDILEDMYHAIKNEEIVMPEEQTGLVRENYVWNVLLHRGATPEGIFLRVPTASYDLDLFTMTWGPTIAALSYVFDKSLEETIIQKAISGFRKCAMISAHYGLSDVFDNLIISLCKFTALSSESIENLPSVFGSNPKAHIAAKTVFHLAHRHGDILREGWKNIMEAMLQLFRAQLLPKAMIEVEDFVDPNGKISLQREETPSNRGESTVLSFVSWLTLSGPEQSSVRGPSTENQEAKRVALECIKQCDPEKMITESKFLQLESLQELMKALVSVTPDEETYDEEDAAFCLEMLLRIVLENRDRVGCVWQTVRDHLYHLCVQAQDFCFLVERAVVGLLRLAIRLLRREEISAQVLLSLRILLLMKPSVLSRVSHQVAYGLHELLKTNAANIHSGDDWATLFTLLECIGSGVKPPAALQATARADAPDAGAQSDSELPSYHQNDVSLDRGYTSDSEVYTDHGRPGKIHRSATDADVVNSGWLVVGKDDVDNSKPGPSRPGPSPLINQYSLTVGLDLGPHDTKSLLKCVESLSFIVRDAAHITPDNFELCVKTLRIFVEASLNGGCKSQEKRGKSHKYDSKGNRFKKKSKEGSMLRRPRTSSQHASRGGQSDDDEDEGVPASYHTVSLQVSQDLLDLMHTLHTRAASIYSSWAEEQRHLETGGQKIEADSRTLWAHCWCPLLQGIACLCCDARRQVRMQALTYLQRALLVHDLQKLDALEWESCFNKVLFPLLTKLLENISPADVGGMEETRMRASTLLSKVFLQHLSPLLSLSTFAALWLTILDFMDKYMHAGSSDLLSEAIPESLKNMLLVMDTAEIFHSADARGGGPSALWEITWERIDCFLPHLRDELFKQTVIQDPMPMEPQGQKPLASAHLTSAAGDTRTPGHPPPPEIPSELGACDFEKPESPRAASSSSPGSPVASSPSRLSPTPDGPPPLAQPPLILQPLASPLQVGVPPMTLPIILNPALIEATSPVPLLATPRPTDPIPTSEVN

B1: His-Sec7-GBF1(710–894) (domain or fragment, human, UniProt Q92538-1 710-894, looked up)
chain: FNQKPKKGIQFLQEKGLLTIPMDNTEVAQWLRENPRLDKKMIGEFVSDRKNIDLLESFVSTFSFQGLRLDEALRLYLEAFRLPGEAPVIQRLLEAFTERWMNCNGSPFANSDACFSLAYAVIMLNTDQHNHNVRKQNAPMTLEEFRKNLKGVNGGKDFEQDILEDMYHAIKNEEIVMPEEQTGLV
notes: Sec7 domain, residues 710-894; the end of the His tag is read from the printed name; vector pBAD/His C; also called His-tagged Sec7 domain of GBF1; His-Sec7-GBF1 fragment; not shown: His tag, N-terminal, kept
B1: the Kd with GST-tagged ATGL(300–504) was 2.5 ± 0.3 µM.

B2: HA-tagged H. sapiens ATGL (full-length) (natural protein)
chain: MFPREKTWNISFAGCGFLGVYYVGVASCLREHAPFLVANATHIYGASAGALTATALVTGVCLGEAGAKFIEVSKEARKRFLGPLHPSFNLVKIIRSFLLKVLPADSHEHASGRLGISLTRVSDGENVIISHFNSKDELIQANVCSGFIPVYCGLIPPSLQGVRYVDGGISDNLPLYELKNTITVSPFSGESDICPQDSSTNIHELRVTNTSIQFNLRNLYRLSKALFPPEPLVLREMCKQGYRDGLRFLQRNGLLNRPNPLLALPPARPHGPEDKDQAVESAQAEDYSQLPGEDHILEHLPARLNEALLEACVEPTDLLTTLSNMLPVRLATAMMVPYTLPLESALSFTIRLLEWLPDVPEDIRWMKEQTGSICQYLVMRAKRKLGRHLPSRLPEQVELRRVQSLPSVPLSCAAYREALPGWMRNNLSLGDALAKWEECQRQLLLGLFCTNVAFPPEALRMRAPADPAPAPADPASPQHQLAGPAPLLSTPAPEARPVIGALGL
In the case of B2, the fold level of interaction over wild type GBF1 (in test [1]; in the test with Venus-ΔDCB-GBF1 (human)) was 10 fold in each case. Besides, the percent of ATGL recovered in the co-IP in test [2] amounted to 10%. This molecule also displayed a fold level of interaction over the wild type N-terminal region in test [3] of 5 to 10 fold.

Source of the values: publication PMC3138737, “Interaction between the Triglyceride Lipase ATGL and the Arf1 Activator GBF1” (PLoS ONE, 2011).
